Measurements reported in patent US20150307863A1.

What follows are substances tested against type IV collagen (assay: cell-based or functional assay).

Going from “Factor IX K5A variant (from UniProt P00740 47-461) (enzyme)” to “Factor IX K5R variant (from UniProt P00740 47-461) (enzyme)”, the median NOD (numbers of disruption), saphenous vein bleeding model in hemophilia B mice 7 days after injection rises from 8 disruptions to 19 disruptions.

Work on “wild type Factor IX (human FIX) (from UniProt P00740 47-461) (enzyme)” yielded a median NOD (numbers of disruption), saphenous vein bleeding model in hemophilia B mice 7 days after injection of 14 disruptions.
